# According to US20210196796A1 (SYNTHEKINE, published 2021):
# Numbering of substitutions follows the chain as printed.
# T1: orthogonal hCD122 receptor (hoRb), hCD122 with H133D and Y134F (human, UniProt P14784 27-550)
# T1 sequence: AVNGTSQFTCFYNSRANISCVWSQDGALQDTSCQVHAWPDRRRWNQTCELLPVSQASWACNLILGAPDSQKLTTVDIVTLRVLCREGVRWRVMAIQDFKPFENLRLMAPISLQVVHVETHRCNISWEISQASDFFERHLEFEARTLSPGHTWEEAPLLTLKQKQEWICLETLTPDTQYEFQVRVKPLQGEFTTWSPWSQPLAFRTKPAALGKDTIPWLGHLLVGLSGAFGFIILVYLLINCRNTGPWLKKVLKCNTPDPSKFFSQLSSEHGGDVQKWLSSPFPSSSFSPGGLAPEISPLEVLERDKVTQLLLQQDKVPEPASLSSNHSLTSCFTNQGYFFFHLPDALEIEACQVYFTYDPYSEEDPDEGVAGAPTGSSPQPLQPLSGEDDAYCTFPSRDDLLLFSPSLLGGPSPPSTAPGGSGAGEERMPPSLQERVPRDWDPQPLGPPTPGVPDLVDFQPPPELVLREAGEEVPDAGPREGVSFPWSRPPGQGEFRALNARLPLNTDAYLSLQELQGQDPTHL
# B1: ΔA1, SQVLKA (ligand)
# chain: PTSSSTKKTQLQLSQLLVLLKAILNGINNYKNPKLTRMLTFKFYMPKKATELKHLQCLEEELKPLEEVLNLAQSKNFHLRPRDLISNINVIVLELKGSETTFMCEYADETATIVEFLNRWITFCQSIISTLT
# B2: ΔP2, SQVLKA (ligand)
# chain: B1 chain with P1A
# B3: ΔT7, SQVLKA (ligand)
# chain: B1 chain with P1A, T2P, S3T, T6S
# B4: SQVLEA (ligand)
# chain: APTSSSTKKTQLQLSQLLVLLEAILNGINNYKNPKLTRMLTFKFYMPKKATELKHLQCLEEELKPLEEVLNLAQSKNFHLRPRDLISNINVIVLELKGSETTFMCEYADETATIVEFLNRWITFCQSIISTLT
# B5: SQVLSA (ligand)
# chain: B4 chain with E22S
# B6: SQVLLA (ligand)
# chain: B4 chain with E22L
# B7: SQVLAA (ligand)
# chain: B4 chain with E22A
# B8: SQVLGA (ligand)
# chain: B4 chain with E22G
# B9: SQVLMA (ligand)
# chain: B4 chain with E22M
# B10: SQVLWA (ligand)
# chain: B4 chain with E22W
# B11: SQVLFA (Ref# 073) (ligand)
# chain: B4 chain with E22F
# B12: SQVLFA (Ref# 079) (ligand)
# chain: B4 chain with E22F
# Molecular target: T1, orthogonal hCD122 receptor (hoRb), …
# Assay: cell-based or functional assay
# For Relative Proliferation Fold Change 3F8 1:10 in this document: reference of the scale not given here.
# For Relative Proliferation Fold Change 3F8 1:2 in this document: reference of the scale not given here.
# For Relative Proliferation Fold Change 3F8 1:50 in this document: reference of the scale not given here.
# For Relative Proliferation Fold Change NKL 1:10 in this document: reference of the scale not given here.
# For Relative Proliferation Fold Change NKL 1:2 in this document: reference of the scale not given here.
# For Relative Proliferation Fold Change NKL 1:50 in this document: reference of the scale not given here.
Binder,3F8 Ortho Proliferation Signal 1:2 [cts/min],3F8 Ortho Proliferation Signal 1:10 [cts/min],3F8 Ortho Proliferation Signal 1:50 [cts/min],Relative Proliferation Fold Change 3F8 1:2 [fold],Relative Proliferation Fold Change 3F8 1:10 [fold],Relative Proliferation Fold Change 3F8 1:50 [fold]
B1,32400,21900,8150,171,22.6,11.7
B2,40100,31000,12400,34.2,29.4,10.5
B3,40800,29200,10700,49.1,21.7,15.3
B4,33400,31600,12600,32.9,28.2,13.1
B5,22000,14500,4060,117,23.9,6
B6,19700,9730,3150,59.8,13,4.68
B7,15900,7290,2940,69.2,10.1,4.29
B8,18000,9170,2300,74.5,15.6,5.06
B9,20800,11100,3800,63.3,14.5,5.92
B10,7840,4470,714,14.6,3.35,0.92

# Molecular target: T1, orthogonal hCD122 receptor (hoRb), …
# Assay: cell-based or functional assay
# Remark: another data set of the same source
Binder,NKL Ortho Proliferation Signal 1:2,NKL Ortho Proliferation Signal 1:10,NKL Ortho Proliferation Signal 1:50,Relative Proliferation Fold Change NKL 1:2 [fold],Relative Proliferation Fold Change NKL 1:10 [fold],Relative Proliferation Fold Change NKL 1:50 [fold]
B1,33400,27700,13800,2.96,1.81,0.96
B2,64000,61900,27800,4.41,3.8,1.77
B3,55400,51900,25300,3.65,3.32,1.76
B4,21100,18200,9480,1.78,1.19,0.67
B5,16000,13000,7840,2.1,1.25,0.77
B6,16400,16100,8570,1.5,1.06,0.59
B7,14600,11800,9400,1.05,0.72,0.62
B8,13500,11700,8730,1.1,0.83,0.6
B9,20500,18600,11000,1.4,1.07,0.65
B11,–,–,–,1.23,–,–
B12,–,–,–,1.23,–,–
B10,14000,11100,8870,1.14,0.66,0.54
